Reference: patent US11213565B2, “Protein P8 derived from lactic acid bacteria and its use as anti-cancer agent” (CELL BIOTECH CO., LTD., priority 2016, dated 2022)

Legend:
[1] = test system: colorectal cancer cell line DLD-1; experiment: Cell survival rate (WST-8) in DLD-1; assay type: cell-based, human; conditions: 0.39 μl/ml to 100 μl/ml, 24 hours
Experimental: Colorectal cancer DLD-1 cells were cultured in a 96-well plate at a density of 1×10^4 cells/well, and each of active sites 1 to 3 (SEQ ID NOs: 8 to 10) of Example 1-3 was added thereto at a concentration of 10 μg/ml. As a negative control, 0.1% PBS buffer used in protein purification was used. The cells were incubated for 24 hours, and then each well was treated with 100 of a cell survival rate measurement kit (Dojindo Cell count kit WST-8) and incubated for 2 hours. The absorbance of each well at 450 nm was measured using a microplate reader (Amersham, Biorad, USA, Japan), and based on the measured values, cell survival rates were calculated.
(§1) Each of the colorectal cancer cell line DLD-1 and the HT-29 cell line was cultured in a 96-well plate at a density of 1×10^4 cells/well, and the P8 protein of Example 1 was added thereto at a concentration of 0.39 μl/ml to 100 μl/ml. As a negative control, 0.1% PBS buffer used in protein purification was used. The cells were incubated for 24 hours, and then each well was treated with 100 of a cell survival rate measurement kit (Dojindo Cell count kit WST-8) and incubated for 2 hours. The absorbance of each well at 450 nm was measured using a microplate reader (Amersham, Biorad, USA, Japan), and based on the measured values, cell survival rates were calculated.

HT-29 cell line = experiment: Cell survival rate (WST-8) in HT-29; assay type: cell-based; conditions: 0.39 μl/ml to 100 μl/ml, 24 hours
Experimental: as §1

[2] = test system: Colorectal cancer DLD-1 cells; experiment: LIVE/DEAD viability/cytotoxicity staining of DLD-1; assay type: cell-based, human; conditions: 1 μg/ml or 10 μg/ml, 24 to 48 hours
Experimental: (§2) Colorectal cancer DLD-1 cells were cultured in a 6-well plate at a density of 1.5×10^6 cells/well, and a P8 protein of the present invention was added thereto at a concentration of 1 μg/ml or 10 μg/ml. Next, the cells were incubated for 24 to 48 hours, and then washed twice with phosphate buffered saline and treated with 1 ml of a LIVE/DEAD viability/cytotoxicity staining kit, followed by incubation for 20 to 40 minutes. By the staining, living cells were stained green, and dead cells were stained red. The cells were observed under a fluorescent microscope, and the degree of inhibition of viability thereof was analyzed.
as §2, with “and the” for “and a”, “of Example 1” for “of the present invention”, “μg/ml. Each well was” for “μg/ml. Next, the cells were”, “staining, live” for “staining, living”

[3] = test system: NIH3T3 cells (mouse embryonic fibroblast cells); experiment: Cytotoxicity assay (WST-8) in NIH3T3; assay type: cell-based; conditions: 0.39 μg/ml to 100 μg/ml, 24 hours
Experimental: In order to examine whether the P8 protein of Example 1 is cytotoxic, a cytotoxicity assay was performed using the P8 protein, highly expressed in NIH3T3 cells (mouse embryonic fibroblast cells), and BSA (bovine serum albumin) as a […] control.
First, NIH3T3 cells were cultured in a 96-well plate at a density of 1×10^4 cells/well, and each of BSA and the highly expressed and purified P8 protein was added thereto at a concentration of 0.39 μg/ml to 100 μg/ml. Each well was incubated for 24 hours, and then treated with 100 of a cell survival rate measurement kit (Dojindo Cell count kit WST-8), followed by incubation for 2 hours. The absorbance of each well at 450 nm was measured using a microplate reader (Amersham, Biorad, USA, Japan), and based on the measured values, cell survival rates were calculated.

[4] = test system: Colorectal cancer DLD-1 cells; experiment: Scratch assay, migration of colorectal cancer cells; assay type: cell-based, human; conditions: 1 μg/ml daily
Experimental: Colorectal cancer DLD-1 cells were treated daily with 1 μg/ml of the P8 protein of Example 1 for 1, 3 or 7 days, and then dispensed into each well of a 6-well plate.
The dispensed DLD-1 cells were cultured overnight, and then the plate having the cells cultured thereon was scratched with a 200 μl tip. To remove suspended material resulting from the scratch, the plate was washed twice with PBS, and then additionally incubated for 24 hours.

[5] = test system: human colorectal cancer cell line (DLD-1) xenograft; experiment: Colorectal cancer xenograft model, tumor volume; assay type: in vivo, nude mice
Experimental: The human colorectal cancer cell line (DLD-1) was transplanted subcutaneously into nude mice, thereby constructing xenograft models. Using the xenograft models, the anticancer activity of the P8 protein of Example 1 was evaluated.
First, for construction of colorectal cancer xenograft models, DLD-1 cells were transplanted subcutaneously into nude mice at a concentration of 1×10^7 cells/100 μl. 10 to 15 Days after the transplantation, the transplanted state of the tumor cells was checked, and mice showing a stable transplanted state were continuously observed. Before tumor's central necrosis occurred, mice showing rapid tumor growth due to supply of sufficient blood were selected, and tumor tissues were collected therefrom. Of the collected tumor tissue, the outer portion in which rapid cell division mainly occurred was cut into a predetermined size (3×3×3 mm), thereby constructing a tumor fragment. Then, the tumor fragment was placed on the tip of a puncture needle (Trocar), and the anterior side of the left rear leg of each animal was incised about 4 mm. The prepared puncture needle was inserted through the incision such that the tip reached the interbody side on the rear side of the left front leg. […] The position of the tumor fragment was determined by touching the skin with hand. […]
During drug administration, the tumor size was measured using Vernier calipers once every two days. […]

B1: P8 protein: 8 KDa protein fragment extracted from Lactobacillus rhamnosus, amino acid sequence SEQ ID NO: 2 (protein, listed as Lactobacillus rhamnosus)
chain: MATVDPEKTLFLDEPMNKVFDWSNSEAPVRDALWDYYMEKNSRDTIKTEEEMKPVLDMSDDEVKALAEKVLKK
cell growth inhibitory effect [1]: about 20%
cell growth inhibitory effect (HT-29 cell line): about 20%
dependence of viability on concentration or time of treatment [2]: decreased as the concentration or time of treatment with the P8 protein increased
viability of the cells compared to negative control ([2]; fluorescent microscope): decreased
cytotoxicity (cell survival rate compared with BSA) [3]: not cytotoxic
decrease of migration rate of the cells compared to untreated control ([4]; 1-day treatment): 15.7%
decrease of migration rate of the cells compared to untreated control ([4]; 3-day treatment): 45.9%
decrease of migration rate of the cells compared to untreated control ([4]; 7-day treatment): 58.3%
cancer growth inhibitory effects compared to conventional anticancer agents ([5]; 10 mg/Kg or higher, intraperitoneally twice a week for 4 weeks, vs 5-fluorouracil 10 mg/Kg, oxaliplatin 4 mg/Kg): superior
cancer growth compared to negative control group ([5]; 1, 5 and 10 mg/Kg intraperitoneally twice a week for 4 weeks): significantly inhibited
